Assay results reported in patent US20180071366A1.
Numbered stars: 1 amine (or outer) side, 2 acyl side, 3 side chain; on linkers, the order of the positions; unused ones are H or OH. Bridge positions count the residues as written; N and C are the ends. Square brackets hold non-standard residues; d marks the D form. * marks the point of attachment. C20 diacid = O=C(O)CCCCCCCCCCCCCCCCCCC(=O)*; γGlu = O=C(O)[C@H](CCC(=O)[*:2])N[*:1]; Hyp = O=C(O)[C@@H]1C[C@@H](O)CN1; NMeI = CC[C@H](C)[C@H](NC)C(=O)O; Aad = N[C@@H](CCCC(=O)O)C(=O)O; Sar = CNCC(=O)O

B1: Compound 36 (peptide)
peptide: {C20 diacid-γGlu}-RDGTATKATERLA[Aad]FLQRSSF[Sar]A[NMeI]LSSTETGSNT[Hyp]-NH2
modifications: lactam 2-7
SMILES: CC[C@H](C)[C@@H](C(=O)N[C@@H](CC(C)C)C(=O)N[C@@H](CO)C(=O)N[C@@H](CO)C(=O)N[C@H](C(=O)N[C@@H](CCC(=O)O)C(=O)N[C@H](C(=O)NCC(=O)N[C@@H](CO)C(=O)N[C@@H](CC(N)=O)C(=O)N[C@H](C(=O)N1C[C@H](O)C[C@H]1C(N)=O)[C@@H](C)O)[C@@H](C)O)[C@@H](C)O)N(C)C(=O)[C@H](C)NC(=O)CN(C)C(=O)[C@H](Cc1ccccc1)NC(=O)[C@H](CO)NC(=O)[C@H](CO)NC(=O)[C@H](CCCNC(=N)N)NC(=O)[C@H](CCC(N)=O)NC(=O)[C@H](CC(C)C)NC(=O)[C@H](Cc1ccccc1)NC(=O)[C@H](CCCC(=O)O)NC(=O)[C@H](C)NC(=O)[C@H](CC(C)C)NC(=O)[C@H](CCCNC(=N)N)NC(=O)[C@H](CCC(=O)O)NC(=O)[C@@H](NC(=O)[C@H](C)NC(=O)[C@@H]1CCCCNC(=O)C[C@H](NC(=O)[C@H](CCCNC(=N)N)NC(=O)CC[C@H](NC(=O)CCCCCCCCCCCCCCCCCCC(=O)O)C(=O)O)C(=O)NCC(=O)N[C@@H]([C@@H](C)O)C(=O)N[C@@H](C)C(=O)N[C@@H]([C@@H](C)O)C(=O)N1)[C@@H](C)O
B2: Compound 37 (peptide)
peptide: {C20 diacid-γGlu}-EDGTATKATERLA[Aad]FLQRSSF[Sar]A[NMeI]LSSTEVGSNT[Hyp]-NH2
modifications: lactam 2-7
SMILES: CC[C@H](C)[C@@H](C(=O)N[C@@H](CC(C)C)C(=O)N[C@@H](CO)C(=O)N[C@@H](CO)C(=O)N[C@H](C(=O)N[C@@H](CCC(=O)O)C(=O)N[C@H](C(=O)NCC(=O)N[C@@H](CO)C(=O)N[C@@H](CC(N)=O)C(=O)N[C@H](C(=O)N1C[C@H](O)C[C@H]1C(N)=O)[C@@H](C)O)C(C)C)[C@@H](C)O)N(C)C(=O)[C@H](C)NC(=O)CN(C)C(=O)[C@H](Cc1ccccc1)NC(=O)[C@H](CO)NC(=O)[C@H](CO)NC(=O)[C@H](CCCNC(=N)N)NC(=O)[C@H](CCC(N)=O)NC(=O)[C@H](CC(C)C)NC(=O)[C@H](Cc1ccccc1)NC(=O)[C@H](CCCC(=O)O)NC(=O)[C@H](C)NC(=O)[C@H](CC(C)C)NC(=O)[C@H](CCCNC(=N)N)NC(=O)[C@H](CCC(=O)O)NC(=O)[C@@H](NC(=O)[C@H](C)NC(=O)[C@@H]1CCCCNC(=O)C[C@H](NC(=O)[C@H](CCC(=O)O)NC(=O)CC[C@H](NC(=O)CCCCCCCCCCCCCCCCCCC(=O)O)C(=O)O)C(=O)NCC(=O)N[C@@H]([C@@H](C)O)C(=O)N[C@@H](C)C(=O)N[C@@H]([C@@H](C)O)C(=O)N1)[C@@H](C)O
B3: Compound 38 (peptide)
peptide: {C20 diacid-γGlu}-RDGTATKATERLA[Aad]FLQRTTF[Sar]A[NMeI]LSSTEVGSNT[Hyp]-NH2
modifications: lactam 2-7
SMILES: CC[C@H](C)[C@@H](C(=O)N[C@@H](CC(C)C)C(=O)N[C@@H](CO)C(=O)N[C@@H](CO)C(=O)N[C@H](C(=O)N[C@@H](CCC(=O)O)C(=O)N[C@H](C(=O)NCC(=O)N[C@@H](CO)C(=O)N[C@@H](CC(N)=O)C(=O)N[C@H](C(=O)N1C[C@H](O)C[C@H]1C(N)=O)[C@@H](C)O)C(C)C)[C@@H](C)O)N(C)C(=O)[C@H](C)NC(=O)CN(C)C(=O)[C@H](Cc1ccccc1)NC(=O)[C@@H](NC(=O)[C@@H](NC(=O)[C@H](CCCNC(=N)N)NC(=O)[C@H](CCC(N)=O)NC(=O)[C@H](CC(C)C)NC(=O)[C@H](Cc1ccccc1)NC(=O)[C@H](CCCC(=O)O)NC(=O)[C@H](C)NC(=O)[C@H](CC(C)C)NC(=O)[C@H](CCCNC(=N)N)NC(=O)[C@H](CCC(=O)O)NC(=O)[C@@H](NC(=O)[C@H](C)NC(=O)[C@@H]1CCCCNC(=O)C[C@H](NC(=O)[C@H](CCCNC(=N)N)NC(=O)CC[C@H](NC(=O)CCCCCCCCCCCCCCCCCCC(=O)O)C(=O)O)C(=O)NCC(=O)N[C@@H]([C@@H](C)O)C(=O)N[C@@H](C)C(=O)N[C@@H]([C@@H](C)O)C(=O)N1)[C@@H](C)O)[C@@H](C)O)[C@@H](C)O
B4: Compound 39 (peptide)
peptide: {C20 diacid-γGlu}-KDGTATKATQRLA[Aad]FLQRSSF[Sar]A[NMeI]LSSTEVGSNT[Hyp]-NH2
modifications: lactam 2-7
SMILES: CC[C@H](C)[C@@H](C(=O)N[C@@H](CC(C)C)C(=O)N[C@@H](CO)C(=O)N[C@@H](CO)C(=O)N[C@H](C(=O)N[C@@H](CCC(=O)O)C(=O)N[C@H](C(=O)NCC(=O)N[C@@H](CO)C(=O)N[C@@H](CC(N)=O)C(=O)N[C@H](C(=O)N1C[C@H](O)C[C@H]1C(N)=O)[C@@H](C)O)C(C)C)[C@@H](C)O)N(C)C(=O)[C@H](C)NC(=O)CN(C)C(=O)[C@H](Cc1ccccc1)NC(=O)[C@H](CO)NC(=O)[C@H](CO)NC(=O)[C@H](CCCNC(=N)N)NC(=O)[C@H](CCC(N)=O)NC(=O)[C@H](CC(C)C)NC(=O)[C@H](Cc1ccccc1)NC(=O)[C@H](CCCC(=O)O)NC(=O)[C@H](C)NC(=O)[C@H](CC(C)C)NC(=O)[C@H](CCCNC(=N)N)NC(=O)[C@H](CCC(N)=O)NC(=O)[C@@H](NC(=O)[C@H](C)NC(=O)[C@@H]1CCCCNC(=O)C[C@H](NC(=O)[C@H](CCCCN)NC(=O)CC[C@H](NC(=O)CCCCCCCCCCCCCCCCCCC(=O)O)C(=O)O)C(=O)NCC(=O)N[C@@H]([C@@H](C)O)C(=O)N[C@@H](C)C(=O)N[C@@H]([C@@H](C)O)C(=O)N1)[C@@H](C)O
B5: Compound 40 (peptide)
peptide: {C20 diacid-γGlu}-RDGTATKATQRLA[Aad]FLQRSSF[Sar]A[NMeI]LSSTEVGSNT[Hyp]-NH2
modifications: lactam 2-7
SMILES: CC[C@H](C)[C@@H](C(=O)N[C@@H](CC(C)C)C(=O)N[C@@H](CO)C(=O)N[C@@H](CO)C(=O)N[C@H](C(=O)N[C@@H](CCC(=O)O)C(=O)N[C@H](C(=O)NCC(=O)N[C@@H](CO)C(=O)N[C@@H](CC(N)=O)C(=O)N[C@H](C(=O)N1C[C@H](O)C[C@H]1C(N)=O)[C@@H](C)O)C(C)C)[C@@H](C)O)N(C)C(=O)[C@H](C)NC(=O)CN(C)C(=O)[C@H](Cc1ccccc1)NC(=O)[C@H](CO)NC(=O)[C@H](CO)NC(=O)[C@H](CCCNC(=N)N)NC(=O)[C@H](CCC(N)=O)NC(=O)[C@H](CC(C)C)NC(=O)[C@H](Cc1ccccc1)NC(=O)[C@H](CCCC(=O)O)NC(=O)[C@H](C)NC(=O)[C@H](CC(C)C)NC(=O)[C@H](CCCNC(=N)N)NC(=O)[C@H](CCC(N)=O)NC(=O)[C@@H](NC(=O)[C@H](C)NC(=O)[C@@H]1CCCCNC(=O)C[C@H](NC(=O)[C@H](CCCNC(=N)N)NC(=O)CC[C@H](NC(=O)CCCCCCCCCCCCCCCCCCC(=O)O)C(=O)O)C(=O)NCC(=O)N[C@@H]([C@@H](C)O)C(=O)N[C@@H](C)C(=O)N[C@@H]([C@@H](C)O)C(=O)N1)[C@@H](C)O

How the values were obtained:
[1] = target: recombinant human calcitonin receptor (hCT-R) (human), P30988; assay: cell-based or functional assay
recombinant human calcitonin receptor (hCT-R) (human), P30988, sequence (P30988 25-474): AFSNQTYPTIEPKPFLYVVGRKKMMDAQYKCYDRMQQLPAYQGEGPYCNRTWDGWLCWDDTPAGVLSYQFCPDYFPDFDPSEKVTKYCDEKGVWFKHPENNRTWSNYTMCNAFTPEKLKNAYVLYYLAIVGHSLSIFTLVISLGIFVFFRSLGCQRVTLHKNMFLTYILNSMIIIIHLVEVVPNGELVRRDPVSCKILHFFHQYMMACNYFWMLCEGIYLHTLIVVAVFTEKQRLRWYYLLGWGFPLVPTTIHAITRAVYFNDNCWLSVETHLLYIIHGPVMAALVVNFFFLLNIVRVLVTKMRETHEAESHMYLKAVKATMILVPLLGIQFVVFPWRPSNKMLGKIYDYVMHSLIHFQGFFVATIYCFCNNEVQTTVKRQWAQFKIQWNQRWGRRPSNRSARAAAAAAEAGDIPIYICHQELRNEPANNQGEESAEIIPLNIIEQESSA

[2] = target: recombinant human amylin 3 receptor (hAMYR3) (human), P30988; assay: cell-based or functional assay
recombinant human amylin 3 receptor (hAMYR3) (human), P30988, sequence (P30988 25-474, chain 1 of 2): as the sequence (P30988 25-474) above
recombinant human amylin 3 receptor (hAMYR3) (human), P30988, sequence (O60896 24-148, chain 2 of 2, further chain): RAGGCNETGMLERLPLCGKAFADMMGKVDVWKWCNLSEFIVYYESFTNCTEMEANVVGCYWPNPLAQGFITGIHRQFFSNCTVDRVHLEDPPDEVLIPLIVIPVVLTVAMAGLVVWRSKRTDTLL

Row | Binder | hCT-R EC50 [nM] (cAMP formation, 1321N1 cells expressing hCT-R) [1] | hAMYR3 EC50 [nM] (cAMP formation, 1321N1 cells expressing hAMYR3) [2]
1 | B1 | 0.026 nM | 0.007 nM
2 | B2 | 0.116 nM | 0.031 nM
3 | B3 | 0.114 nM | 0.06 nM
4 | B4 | 0.094 nM | 0.024 nM
5 | B5 | 0.028 nM | 0.008 nM
